We go through two sequences from paper PMC10159624.

Assay in all cases: EMSA
Settings in all cases: 25 mM Tris pH 8.0, 100 mM KCl, 10 mM MgCl2, 10% glycerol, 1 mM TCEP, +/- 5 mM ATP-MgOAc2, 20 pM dsRNA, 30 min at 4 C; 5% native PAGE in 0.5x TBE at 4 C
In general terms: Mobility shift assays separate free from complexed probe on a gel.

Series [1] concerns AncD1LOPH/DEUT HEL-DUF (reconstructed ancestor (lophotrochozoan/deuterostome Dicer-1, ML tree)).
Series [2] has as its system AncD1ARTH/LOPH/DEUT HEL-DUF (reconstructed ancestor (arthropod/lophotrochozoan/deuterostome Dicer-1, ML tree)).
Series [3] deals with AncD1D2 HEL-DUF (reconstructed ancestor (animal Dicer-1/Dicer-2, ML tree)).
For series [4], the system named is AncD1DEUT HEL-DUF (reconstructed ancestor (deuterostome Dicer-1, ML tree)).
For series [5], the system named is AncD1VERT HEL-DUF (reconstructed ancestor (vertebrate Dicer-1, ML tree)).

Several values for one entry are separate records, joined by “and”; a condition that tells them apart may be missing. Identical values can stand only once.

By Kd is commonly meant the equilibrium constant for the complex coming apart. In the case of “GGGAAGCUCAGAAUAUUGCACAAGUAGAGCUUCUCGAUCCCC / GGAUCGAGAAGCUCUACUUGUGCAAUAUUCUGAGCUUCCCGG [42-bp 3'ovr dsRNA]”, the dissociation constant (Kd) in series [1] was 49 nM and 90.8 nM; in series [2], 40.1 nM and 17.3 nM; in series [3], 6.5 nM and 15.9 nM; in series [4], 140 nM and 150 nM; in series [5] it was 538 nM and 500 nM.
Regarding “GGGAAGCUCAGAAUAUUGCACAAGUAGAGCUUCUCGAUCCCC / GGGGAUCGAGAAGCUCUACUUGUGCAAUAUUCUGAGCUUCCC [42-bp BLT dsRNA]”, the dissociation constant Kd is 38 nM and 60.9 nM in series [1]; 23.8 nM and 17.5 nM in series [2]; 3.4 nM and 6.4 nM in series [3]; 145 nM and 132 nM in series [4]; 502 nM and 592 nM in series [5].
